Numbering of substitutions follows the chain as printed.
B1: PRO2589 (bispecific antibody)
chain 1: DVQMTQSPSSLSASVGDRVTITCRASENIYSGLAWYQQKPGKPPKLLIYRASTLASGVSSRFSGSGSGTDFTLTISSLQPEDFATYYCQGGYYSSSSTYIAFGTGTKVTVLGGGGGSGGGGSGGGGSGGGGSQSQVVESGGGLVQPGGSLRLSCAVSGFDLSSYAVSWVRQAPGKGLEWIGIIYPRANTYYASWAKGRFTISKDNSKNTVYLQMNSLRAEDTAVYFCARDRYDSGAYLYTTYFNLWGQGTLVTVSSGGGGSGGGGSAFELTQSPSSLSASVGDRVTITCQASESINSRLAWYQQKPGQPPKLLIYDASDLTSGVPSRFSGSGSGTDFTLTISSLQPEDFATYYCQGYGGSSTTTFGCGTKLTVLGGGSGGSDIQMTQSPSSLSASVGDRVTITCQSSQSVFSNNYLAWFQQKPGQSPKRLIYSASTLASGVPSRFSGSGSGTDFTLTISSLQPEDFATYYCLGSYACSSADCYVFGTGTKVTVLG
chain 2: DVQMTQSPSSLSASVGDRVTITCRASENIYSGLAWYQQKPGKPPKLLIYRASTLASGVSSRFSGSGSGTDFTLTISSLQPEDFATYYCQGGYYSSSSTYIAFGTGTKVTVLGGGGGSGGGGSGGGGSGGGGSQSQVVESGGGLVQPGGSLRLSCAVSGFDLSSYAVSWVRQAPGKGLEWIGIIYPRANTYYASWAKGRFTISKDNSKNTVYLQMNSLRAEDTAVYFCARDRYDSGAYLYTTYFNLWGQGTLVTVSSGGGGSGGGGSEVQLVESGGGLVQPGGSLRLSCAASGFSLSSYDMSWVRQAPGKGLAWIGASYASGPTYYASWAKGRFTISRDNSKNTVYLQMNSLRAEDTATYFCARGGWTGTSHSNIWGQGTLVTVSSGGGSGGGSGGGSGEVQLVESGGGLVQPGGSLRLSCAASGFSLSSYAMNWVRQAPGKCLEWIGHINAGDIAYYATWAKGRFTISRDNSKNTVYLQMNSLRAEDTAVYFCARGAGGFSTGPFKLWGQGTLVTVSS
notes: heterodimeric MATCH4, bivalent for ROR1, monovalent for CD3 and hSA; also called MATCH4 with 55-38-D07-sc02 / 19-04-A10-sc06 / 28-21-D09-sc04 / 55-38-D07-sc02
B2: PRO2591 (bispecific antibody)
chain 1: AQQLTQSPSSLSASVGDRVTITCQASQNVWNNNYLSWFQQKPGKPPKLLIVTASTLASGVSSRFSGSGSGTDFTLTISSLQPEDFATYYCAGGFSGEIRAFGTGTKVTVLGGGGGSGGGGSGGGGSGGGGSQSQLVESGGGLVQPGGSLRLSCAVSGIDLSRNAMSWVRQAPGKGLEWIGIILTSGSTYYASWAKGRFTISKTSTTLDLQMNSLRAEDTAVYFCVRGIASSSLKSFWGQGTLVTVSSGGGGSGGGGSAFELTQSPSSLSASVGDRVTITCQASESINSRLAWYQQKPGQPPKLLIYDASDLTSGVPSRFSGSGSGTDFTLTISSLQPEDFATYYCQGYGGSSTTTFGCGTKLTVLGGGSGGSDIQMTQSPSSLSASVGDRVTITCQSSQSVFSNNYLAWFQQKPGQSPKRLIYSASTLASGVPSRFSGSGSGTDFTLTISSLQPEDFATYYCLGSYACSSADCYVFGTGTKVTVLG
chain 2: AQQLTQSPSSLSASVGDRVTITCQASQNVWNNNYLSWFQQKPGKPPKLLIVTASTLASGVSSRFSGSGSGTDFTLTISSLQPEDFATYYCAGGFSGEIRAFGTGTKVTVLGGGGGSGGGGSGGGGSGGGGSQSQLVESGGGLVQPGGSLRLSCAVSGIDLSRNAMSWVRQAPGKGLEWIGIILTSGSTYYASWAKGRFTISKTSTTLDLQMNSLRAEDTAVYFCVRGIASSSLKSFWGQGTLVTVSSGGGGSGGGGSEVQLVESGGGLVQPGGSLRLSCAASGFSLSSYDMSWVRQAPGKGLAWIGASYASGPTYYASWAKGRFTISRDNSKNTVYLQMNSLRAEDTATYFCARGGWTGTSHSNIWGQGTLVTVSSGGGSGGGSGGGSGEVQLVESGGGLVQPGGSLRLSCAASGFSLSSYAMNWVRQAPGKCLEWIGHINAGDIAYYATWAKGRFTISRDNSKNTVYLQMNSLRAEDTAVYFCARGAGGFSTGPFKLWGQGTLVTVSS
notes: heterodimeric MATCH4, bivalent for ROR1, monovalent for CD3 and hSA; also called MATCH4 with 55-39-G02-sc03 / 19-04-A10-sc06 / 28-21-D09-sc04 / 55-39-G02-sc03
B3: PRO2592 (bispecific antibody)
chain 1: B2 chain 1 with T103C, G175C
chain 2: B2 chain 2 with T103C, G175C
notes: heterodimeric MATCH4, bivalent for ROR1, monovalent for CD3 and hSA; also called MATCH4 with 55-39-G02-sc06 / 19-04-A10-sc06 / 28-21-D09-sc04 / 55-39-G02-sc06
B4: PRO2590 (bispecific antibody)
chain 1: B1 chain 1 with T104C, G176C
chain 2: B1 chain 2 with T104C, G176C
notes: heterodimeric MATCH4, bivalent for ROR1, monovalent for CD3 and hSA; also called MATCH4 with 55-38-D07-sc06 / 19-04-A10-sc06 / 28-21-D09-sc04 / 55-38-D07-sc06

What follows are binders tested against T1, human ROR1 expressed on cells (human, UniProt Q01973 30-937) (assay: flow cytometry, MDA-MB-231 cells, 1 mg/ml hSA).
T1 construct: whole, on cells; One molecule for cell-surface ROR1 on all cell lines; the cell line is named under assay; also called hROR1; plasma membrane human ROR1

| fold better rel. EC50 than scMATCH3 PRO2507 [fold] | Binder |
| --- | --- |
| ~10 | B1 |

These binders were tested against T1, human ROR1 expressed on cells (assay: cell-based or functional assay).

| Avg. % max. CD8 T cell act. (JIMT-1) [%] | Avg. % max. CD8 T cell act. (MDA-MB-231) [%] | Avg. % max. CD8 T cell act. (SKOV3) [%] | Avg. EC50 (nM) CD8 T cell act. (JIMT-1) [nM] | Avg. EC50 (nM) CD8 T cell act. (MDA-MB-231) [nM] | Avg. EC50 (nM) CD8 T cell act. (SKOV3) [nM] | Binder |
| --- | --- | --- | --- | --- | --- | --- |
| 20.3 | 67.5 | 62.7 | 4.6 | 0.01 | 0.68 | B2 |
| 15.5 | 67 | 54.7 | 9.8 | 0.011 | 1.6 | B3 |
| 23.8 | 68.5 | 66.7 | 0.08 | 0.012 | 0.032 | B1 |
| 22.5 | 68.8 | 63.7 | 0.09 | 0.013 | 0.034 | B4 |

The binders below were run against T2, recombinant human ROR1 protein (Fc-Tag, Acro Biosystems RO1-H5250) (human, UniProt Q01973 30-406) (assay: SPR; hROR1-Fc immobilized (Avidity)).
T2 construct: Bought; also called hROR1; recombinant human ROR1 ECD; not shown: Fc tag

| Kd [pM] | koff [s⁻¹] | kon [M⁻¹ s⁻¹] | Binder |
| --- | --- | --- | --- |
| 22.7 | 4.1e-05 | 1.81e+06 | B2 |
| 28.7 | 5.69e-05 | 1.98e+06 | B3 |
| 93 | 7.02e-05 | 755000 | B1 |
| 136 | 6.15e-05 | 453000 | B4 |

These binders were tested against T3, recombinant human CD3 epsilon extra-cellular domain protein (His-Tag, SinoBiological) (human, UniProt P07766 23-126) (assay: SPR; hCD3ε immobilized, two-state fit).
T3 construct: extracellular domain; Bought; also called hCD3ε; human CD3ε; not shown: His tag

| Ka2 [s⁻¹] | Kd [pM] | Kd2 [s⁻¹] | Binder |
| --- | --- | --- | --- |
| 0.0027 | 4700 | 0.0024 | B2 |
| 0.0036 | 6300 | 0.0036 | B3 |
| 0.0063 | 5900 | 0.0042 | B1 |
| 0.0055 | 5700 | 0.0043 | B4 |

Biological target: T1, human ROR1 expressed on cells
Assay: cell-based or functional assay
Remark: another data set of the same source

| Avg. % max. CD4 T cell act. (JIMT-1) [%] | Avg. % max. CD4 T cell act. (MDA-MB-231) [%] | Avg. % max. CD4 T cell act. (SKOV3) [%] | Avg. EC50 (nM) CD4 T cell act. (JIMT-1) [nM] | Avg. EC50 (nM) CD4 T cell act. (MDA-MB-231) [nM] | Avg. EC50 (nM) CD4 T cell act. (SKOV3) [nM] | Binder |
| --- | --- | --- | --- | --- | --- | --- |
| 30.5 | 80.3 | 78.7 | 3.9 | 0.005 | 0.38 | B2 |
| 23 | 79 | 75 | 9.1 | 0.005 | 0.76 | B3 |
| 36.7 | 79 | 80.3 | 0.09 | 0.006 | 0.02 | B1 |
| 35.3 | 79.3 | 78.3 | 0.11 | 0.007 | 0.02 | B4 |

These binders were tested against T4, human ROR1 (Peprotech 160-054) (human, UniProt Q01973 30-406) (assay: SPR; MATCH4 captured, hROR1 analyte (Affinity)).
T4 construct: Bought, used as analyte; also called hROR1; recombinant human ROR1 protein
Description: Binding affinity without avidity was determined by using a proprietary anti-framework rabbit IgG (rlgG21-57-20-B11) immobilized to a carboxymethylated dextran surface (CM5 sensorchip; Biacore, Cytiva) to capture the MATCH4 molecules on the surface. A titration series of human ROR1 (Peprotech 160-054) molecule was injected as analyte. After each capture-analyte injection cycle, every flow channel on the sensor chip was regenerated (3 M MgCl₂), and a MATCH4 molecule was captured again followed by a different concentration of human ROR1. The binding kinetics to human ROR1 were measured using a multi-cycle kinetic assay, with ten analyte concentrations ranging from 0.088 to 90 nM, 1:2 diluted in running buffer (HEPES buffered saline, 0.05% Tween-20, pH 7.5; Bioconcept).
For both assays, the apparent dissociation (kd) and association (kₐ) rate constants and the apparent dissociation equilibrium constant (KD) were calculated with the Biacore analysis software (Biacore Evaluation software Version 3.2, Cytiva) using a one-to-one Langmuir binding model and quality of the fits was monitored based on Chi2 and U-value, which are measures for the quality of the curve fitting. The binding level was calculated as the maximum stability binding achieved normalized to the theoretical Rmax.

| Kd [pM] | koff [s⁻¹] | kon [M⁻¹ s⁻¹] | Binder |
| --- | --- | --- | --- |
| 3200 | 0.00034 | 110000 | B2 |
| 5000 | 0.00049 | 98000 | B3 |
| 1200 | 0.00011 | 94000 | B1 |
| 2900 | 0.00017 | 59000 | B4 |

Each binder was assayed against T1, human ROR1 expressed on cells (assay: flow cytometry, JIMT-1 cells (ROR1-positive)).

| EC50 (read off the curve) [pM] | Binder |
| --- | --- |
| 1000 to 2000 | B1 |
| 1000 to 2000 | B4 |

What follows are binders tested against T3, recombinant human CD3 epsilon … (assay: SPR; hCD3ε immobilized, two-state fit (kd1)).
Description: (§1) Binding kinetics (including affinity) of the four MATCH4 molecules to recombinant human CD3 epsilon extra-cellular domain protein (hCD3ε; His-Tag, SinoBiological) were determined by SPR analysis on a T200 device (Biacore, Cytiva). Recombinant hCD3ε molecules were covalently immobilized to a carboxymethylated dextran surface (CM5 sensorchip; Biacore, Cytiva) and a titration series of each MATCH4 molecule was injected as analyte. After each analyte injection-cycle, every flow channel on the sensor chip was regenerated (Glycine, pH 2.0 and 3 M MgCl₂), and a new concentration of MATCH4 molecule was injected. […] The apparent dissociation (kd1) and association (kₐ₁) rate constants, the second reaction constants (kₐ₂ and kd2) and the apparent dissociation equilibrium constant (KD) were calculated with the Biacore analysis software (Biacore Evaluation software Version 3.2, Cytiva) using a two-state binding model, and the quality of the fits was monitored based on relative Chi2. The binding level was calculated as the maximum stability binding achieved normalized to the theoretical Rmax.

| koff [s⁻¹] | Binder |
| --- | --- |
| 0.00423 | B2 |
| 0.0055 | B3 |
| 0.0065 | B1 |
| 0.0058 | B4 |

Biological target: T1, human ROR1 expressed on cells
Assay: flow cytometry, JIMT-1 cells (ROR1-positive)
Remark: another data set of the same source

| EC50 (read off the curve) [pM] | Binder |
| --- | --- |
| ~500 | B2 |
| ~500 | B3 |

Biological target: T1, human ROR1 expressed on cells
Assay: flow cytometry, MDA-MB-231 cells, 1 mg/ml hSA
Remark: another data set of the same source
Description: After incubation at 4° C. for 1 h in presence of 1 mg/ml of human serum albumin (hSA), plates were washed and incubated with specific detection antibodies.
The binding of MATCH4 molecules to plasma membrane-based human ROR1 was assessed by flow cytometry. The calculated EC₅₀, rel.

| EC50 [pM] | Rel. maximum binding (MFIMATCH4/MFIPRO2213) | rel. EC50 (EC50, PRO2213/EC50, MATCH4) | Binder |
| --- | --- | --- | --- |
| 280 | 2.21 | 2.45 | B2 |
| 720 | 2.41 | 0.94 | B3 |
| 1550 | 2.67 | 0.45 | B1 |
| 1230 | 2.76 | 0.56 | B4 |

Each binder was assayed against T3, recombinant human CD3 epsilon … (assay: SPR; hCD3ε immobilized, two-state fit (Ka1)).
Description: as §1

| kon [M⁻¹ s⁻¹] | Binder |
| --- | --- |
| 420000 | B2 |
| 430000 | B3 |
| 440000 | B1 |
| 450000 | B4 |

Biological target: T1, human ROR1 expressed on cells
Assay: cell-based or functional assay
Remark: another data set of the same source

| Avg. % max. lysis (JIMT-1) [%] | Avg. % max. lysis (MDA-MB-231) [%] | Avg. % max. lysis (SKOV3) [%] | Avg. EC50 (nM) CD8 T cell act. (MDA-MB-231) [nM] | Avg. EC50 (nM) CD8 T cell act. (SKOV3) [nM] | Binder | Avg. EC50 (nM) Cytotoxicity (JIMT-1) [nM] | Avg. EC50 (nM) Cytotoxicity (MDA-MB-231) [nM] | Avg. EC50 (nM) Cytotoxicity (SKOV3) [nM] |
| --- | --- | --- | --- | --- | --- | --- | --- | --- |
| 34.5 | 47.2 | 58.7 | 0.01 | 0.68 | B2 | 2.4 | 0.011 | 3.5 |
| 24.9 | 47.1 | 44.7 | 0.011 | 1.6 | B3 | 3.3 | 0.008 | 5.37 |
| 41 | 56.9 | 54.6 | 0.012 | 0.031 | B1 | 0.1 | 0.015 | 0.043 |
| 38.6 | 52.2 | 51.8 | 0.013 | 0.034 | B4 | 0.13 | 0.016 | 0.049 |
